Molecular target: Vibrio cholerae type IVa pilus secretin PilQ, N-terminally deca-histidine tagged (Vibrio cholerae)
Assay: cryo-EM structure

Substance: Vibrio cholerae type IVa pilus secretin PilQ, N-terminally deca-histidine tagged (natural protein)
- stoichiometry N: 14

From publication PMC7545093
